Target: T4L-β2AR (N-terminally fused T4 lysozyme-β2AR construct truncated in position 365), BI-167107 bound (human)
Test: crystal structure

buried surface for GαsRas: 1300 A^2
buried surface for the β2AR: 1280 A^2
total buried surface of the β2AR-GαsRas interface: 2580 A^2
Substance: Gαs subunit of the heterotrimeric Gs protein (from UniProt P04896 2-394)

Source: patent US20140275487A1
